The values below come from patent publication US20250313611A1.

In assay [1] the target is recombinant human FcRn/FCGRT-B2M heterodimer protein (human) (UniProt P55899). Description: SPR Biacore 8K+, antibody on CM5 chip, FcRn in solution, pH 6.0. In general terms: Surface plasmon resonance follows binding to a sensor surface in real time, without labels.
For assay [2] the target is unchanged. Description: SPR, steady state affinity, pH 6.0.
Assay [3] addresses SARS-COV-2 RBD (His-tagged, Sinobiologicals) (SARS-CoV-2 (Wuhan)) (UniProt P0DTC2). Description: ELISA, coated antigen, dilution series, OD450 [3/3]. (ELISA stands for enzyme-linked immunosorbent assay.)
Assay [4] deals with recombinant stabilized SARS-COV-1 Spike protein ([change], with foldon) (SARS-CoV-1) (UniProt P59594). The description is as above.
Assay [5] deals with recombinant prefusion-stabilized SARS-COV-2 spike protein S-6P (SARS-CoV-2 (Wuhan)) (UniProt P0DTC2). Described as above.

One may read the Kd as a measure of binding affinity in units of concentration. One may read the EC50 (read off the curve) as the concentration needed to bring the measured effect to its halfway point.

recombinant human FcRn/FCGRT-B2M heterodimer protein (human), sequence (P55899 24-297 limits assumed, chain 1 of 2): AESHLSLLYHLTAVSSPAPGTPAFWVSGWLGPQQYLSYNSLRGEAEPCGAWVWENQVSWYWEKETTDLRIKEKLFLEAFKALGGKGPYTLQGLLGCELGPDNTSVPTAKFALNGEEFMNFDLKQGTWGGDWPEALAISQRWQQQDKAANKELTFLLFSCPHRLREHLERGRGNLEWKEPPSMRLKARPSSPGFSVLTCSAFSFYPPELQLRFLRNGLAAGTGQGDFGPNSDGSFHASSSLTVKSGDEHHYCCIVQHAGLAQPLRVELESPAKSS
recombinant human FcRn/FCGRT-B2M heterodimer protein (human), sequence (P61769 21-119 limits assumed, chain 2 of 2, further chain): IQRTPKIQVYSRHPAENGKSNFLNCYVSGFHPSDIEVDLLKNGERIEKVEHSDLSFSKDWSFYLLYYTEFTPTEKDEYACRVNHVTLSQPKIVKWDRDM

Consider “Bebtelovimab Biosimilar (PX-TA1750) (antibody)”, for which the RUmax (steady state affinity, pH 6.0) in assay [1] came out at 57.1 RU. In addition, the Kd in assay [2] was determined as 0.0194 µM.

On to S309 monoclonal antibody, for which the concentration giving a half-maximal response (EC50 (read off the curve)) in assay [3] was 0.1 µg/mL; in assay [4], 0.04 µg/mL; in assay [5], 0.09 µg/mL.

Take human IgG1 isotype control antibody: in assay [1], the RUmax (steady state affinity, pH 6.0) stood at 37.5 RU. Moreover, in assay [2], the Kd is 0.015 µM.
